Source: PMC4697752

B1: Matrix metalloproteinase-9 (MMP-9): mS38 (protein)
parent chain: MSLWQPLVLVLLVLGCCFAAPRQRQSTLVLFPGDLRTNLTDRQLAEEYLYRYGYTRVAEMRGESKSLGPALLLLQKQLSLPETGELDSATLKAMRTPRCGVPDLGRFQTFEGDLKWHHHNITYWIQNYSEDLPRAVIDDAFARAFALWSAVTPLTFTRVYSRDADIVIQFGVAEHGDGYPFDGKDGLLAHAFPPGPGIQGDAHFDDDELWSLGKGVVVPTRFGNADGAACHFPFIFEGRSYSACTTDGRSDGLPWCSTTANYDTDDRFGFCPSERLYTQDGNADGKPCQFPFIFQGQSYSACTTDGRSDGYRWCATTANYDRDKLFGFCPTRADSTVMGGNSAGELCVFPFTFLGKEYSTCTSEGRGDGRLWCATTSNFDSDKKWGFCPDQGYSLFLVAAHEFGHALGLDHSSVPEALMYPMYRFTEGPPLHKDDVNGIRHLYGPRPEPEPRPPTTTTPQPTAPPTVCPTGPPTVHPSERPTAGPTGPPSAGPTGPPTAGPSTATTVPLSPVDDACNVNIFDAIAEIGNQLYLFKDGKYWRFSEGRGSRPQGPFLIADKWPALPRKLDSVFEERLSKKLFFFSGRQVWVYTGASVLGPRRLDKLGLGADVAQVTGALRSGRGKMLLFSGRRLWRFDVKAQMVDPRSASEVDRMFPGVPLDTHDVFQYREKAYFCQDRFYWRVSSRSELNQVDQVGYVTYDILQCPED
B2: Matrix metalloproteinase-9 (MMP-9): mS38/N120S (protein)
parent chain: B1 parent chain
B3: Matrix metalloproteinase-9 (MMP-9): N120S (protein)
parent chain: B1 parent chain

Assay: secreted mCherry-tagged MMP-9, microplate reader
Settings: glycan lost; control: wild type

Row | Protein | expression_or_secretion
1 | B1 | no change
2 | B2 | decreases
3 | B3 | decreases
